For 5 molecules, Ki results are on record in patent publication US20110135573A1 (DYAX, published 2011).

Experiment [1] concerns the target T1, Human MMP-9 catalytic domain (BIOMOL, SE-244) (human, UniProt P14780 107-457, limits assumed).
T1 construct: domain: catalytic domain; also called Cat-huMMP-9; cat-huMMP-9
In words: Ki,app, enzyme inhibition assay (fluorogenic peptide substrate), small-scale sFab. As for the experimental part:
(§1) Target enzymes were incubated with inhibitor for two hours at 30° C. in reaction buffer (50 mM Tris-HCl pH 7.5, 150 mM NaCl, 5 mM CaCl₂, 0.05% Brij-35) in a total volume of 90 μL using a white 96 well plate (Costar). […] An anti-MMP-2 antibody (R&D Systems polyclonal IgG #AF902) was similarly tested with 200 nM as the highest inhibitor concentration. Reactions were initiated by the addition of 10 μL of a 10× concentrated stock of substrate, Mca-Lys-Pro-Leu-Gly-Leu-Dap(Dnp)-Ala-Arg-NH2, (Bachem M-2350), at final concentration of 10 μM and monitored at 30° C. in a Molecular Devices' Gemini fluorescence plate reader. The excitation and emission wavelengths were set at 328 nm and 393 nm, respectively. Kinetic data were acquired by the increase in fluorescence, and initial rates for each condition were plotted against the total inhibitor concentration. Reactions were performed in duplicates and all data replicates were plotted in a single graph and fit to the following equation¹: […]

For experiment [2], the target named is T1, Human MMP-9 catalytic domain (BIOMOL, …). Put plainly: Ki,app, enzyme inhibition assay (fluorogenic peptide substrate), medium-scale sFab. How it is done:
as §1

Experiment [3] deals with T2, Mouse MMP-9 (R&D, 909-MM), APMA-activated (mouse, UniProt P41245 108-730, limits assumed).
T2 construct: also called mMMP-9; mouse MMP-9 (R&D Systems #909-MM-010)
T2 sequence (P41245 108-730 limits assumed): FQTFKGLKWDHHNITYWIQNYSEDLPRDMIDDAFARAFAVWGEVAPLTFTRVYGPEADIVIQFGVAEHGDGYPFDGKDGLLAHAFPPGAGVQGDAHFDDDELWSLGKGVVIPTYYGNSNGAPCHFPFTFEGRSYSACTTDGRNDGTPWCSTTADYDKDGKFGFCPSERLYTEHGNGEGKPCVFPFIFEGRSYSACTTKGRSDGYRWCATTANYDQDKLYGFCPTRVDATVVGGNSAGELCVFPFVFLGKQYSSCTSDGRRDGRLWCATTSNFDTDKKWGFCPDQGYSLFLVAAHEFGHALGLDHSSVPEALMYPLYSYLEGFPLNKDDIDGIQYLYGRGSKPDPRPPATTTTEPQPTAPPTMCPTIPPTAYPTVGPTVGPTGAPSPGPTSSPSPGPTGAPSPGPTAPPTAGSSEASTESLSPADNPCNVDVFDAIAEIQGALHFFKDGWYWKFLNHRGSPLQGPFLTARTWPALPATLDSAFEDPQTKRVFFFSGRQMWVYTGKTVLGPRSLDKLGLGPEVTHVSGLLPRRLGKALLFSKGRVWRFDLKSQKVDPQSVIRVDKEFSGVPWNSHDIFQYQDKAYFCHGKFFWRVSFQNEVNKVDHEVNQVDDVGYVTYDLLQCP
The experiment is described as above. How it is done: as §1

Experiment [4] addresses T3, human MMP-2 (Biomol #SE-237) (human, UniProt P08253 110-452, limits assumed).
T3 construct: also called hMMP-2
The experiment is described as above. How it is done:
as §1

Experiment [5] has as its target T2, Mouse MMP-9 (R&D, 909-MM), …. Put plainly: Ki,app, enzyme inhibition assay (fluorogenic peptide substrate), small-scale sFab. As for the experimental part:
as §1

Experiment [6] addresses T3, human MMP-2 (Biomol #SE-237). Described as above. As for the experimental part:
as §1

T3 sequence (P08253 110-452 limits assumed): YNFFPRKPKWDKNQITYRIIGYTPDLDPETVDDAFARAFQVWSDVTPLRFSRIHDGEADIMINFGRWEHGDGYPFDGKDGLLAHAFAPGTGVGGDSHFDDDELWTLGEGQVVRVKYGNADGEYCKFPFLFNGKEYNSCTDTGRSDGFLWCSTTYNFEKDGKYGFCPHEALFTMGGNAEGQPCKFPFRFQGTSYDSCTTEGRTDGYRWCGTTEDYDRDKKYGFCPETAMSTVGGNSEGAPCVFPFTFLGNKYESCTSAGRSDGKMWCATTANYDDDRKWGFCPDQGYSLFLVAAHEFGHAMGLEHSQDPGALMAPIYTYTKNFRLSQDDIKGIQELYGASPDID
T1 sequence (P14780 107-457 limits assumed): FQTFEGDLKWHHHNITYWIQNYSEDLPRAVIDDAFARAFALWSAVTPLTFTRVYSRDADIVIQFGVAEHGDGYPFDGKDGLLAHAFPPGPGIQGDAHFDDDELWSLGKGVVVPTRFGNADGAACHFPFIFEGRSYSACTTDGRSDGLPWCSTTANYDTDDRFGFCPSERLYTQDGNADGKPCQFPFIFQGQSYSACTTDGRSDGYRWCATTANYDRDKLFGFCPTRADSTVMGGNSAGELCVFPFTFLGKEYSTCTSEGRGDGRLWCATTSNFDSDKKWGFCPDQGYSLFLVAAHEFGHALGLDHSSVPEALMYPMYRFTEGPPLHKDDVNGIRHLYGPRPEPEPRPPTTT

B1: M0256-D11 (Fab, V domains shown)
VH: EVQLLESGGGLVQPGGSLRLSCAASGFTFSHYDMWWVRQAPGKGLEWVSVIYSSGGPTFYADSVKGRFTISRDNSKNTLYLQMNSLRAEDTAVYYCAKDRAYGDYVGWNGFDYWGQGTLVTVSS
VL: DIQMTQSPATLSLSPGERATLSCRASQSISSFLAWYQQKPGQAPRLLIYDASYRATGIPARFSGSGSGTDFTLTISSLEPEDYAVYYCQQRGNWPITFGQGTRLEIK
notes: sFab; variable domains only; also called M256-D11; 539A-M0256-D11
As for B1, the Ki in experiment [1] was 0.3 nM; in experiment [2], 0.3 nM; in experiment [3], 0.6 nM; in experiment [4], 0.5 nM.

B2: M0275-D03 (Fab, V domains shown)
VH: EVQLLESGGGLVQPGGSLRLSCAASGFTFSQYDMWWVRQAPGKGLEWVSVIYPSGTTFYADSVKGRFTISRDNSKNTLYLQMNSLRAEDTAVYYCAKDRAYGDYVGWNGFDYWGQGTLVTVSS
VL: DIQMTQSPATLSLSPGERATLSCRASQSISSFLAWYQQKPGQAPRLLIYDASYRATGIPARFSGSGSGTDFTLTISSLEPEDYAVYYCQQRGNWPITFGQGTRLEIK
notes: sFab; variable domains only; also called M275-D03
Regarding B2, the Ki in experiment [1] is 0.6 nM; in experiment [5] it was 1.2 nM; in experiment [6], 0.7 nM; in experiment [2], 0.6 nM; in experiment [3] it was 1 nM; in experiment [4] it was 0.5 nM.

B3: M0276-F11 (Fab, V domains shown)
VH: EVQLLESGGGLVQPGGSLRLSCAASGFTFSWYDMWWVRQAPGKGLEWVSVIYSSGGPTFYADSVKGRFTISRDNSKNTLYLQMNSLRAEDTAVYYCAKDRAYGDYVGWNGFDYWGQGTLVTVSS
VL: DIQMTQSPATLSLSPGERATLSCRASQSISSFLAWYQQKPGQAPRLLIYDASYRATGIPARFSGSGSGTDFTLTISSLEPEDYAVYYCQQRGNWPITFGQGTRLEIK
notes: sFab; variable domains only; also called M276-F11
On to B3, for which the Ki in experiment [1] came to 0.2 nM; in experiment [5], 0.4 nM; in experiment [6], 0.2 nM; in experiment [2] it was 0.4 nM; in experiment [3], 0.6 nM; in experiment [4], 0.4 nM.

B4: M0274-G08 (Fab, V domains shown)
VH: EVQLLESGGGLVQPGGSLRLSCAASGFTFSVYDMWWVRQAPGKGLEWVSVIYPSGGATYYADSVKGRFTISRDNSKNTLYLQMNSLRAEDTAVYYCAKDRAYGDYVGWNGFDYWGQGTLVTVSS
VL: DIQMTQSPATLSLSPGERATLSCRASQSISSFLAWYQQKPGQAPRLLIYDASYRATGIPARFSGSGSGTDFTLTISSLEPEDYAVYYCQQRGNWPITFGQGTRLEIK
notes: sFab; variable domains only; also called M274-G08
On to B4, for which the Ki in experiment [1] stood at 0.6 nM; in experiment [2], 0.5 nM; in experiment [3], 0.6 nM; in experiment [4], 0.4 nM.

B5: M0307-F04 (Fab, V domains shown)
VH: EVQLLESGGGLVQPGGSLRLSCAASGFTFSLYDMWWVRQAPGKGLEWVSVIYSSGGYTGYADSVKGRFTISRDNSKNTLYLQMNSLRAEDTAVYYCAKDRAYGDYVGWNGFDYWGQGTLVTVSS
VL: DIQMTQSPATLSLSPGERATLSCRASQSISSFLAWYQQKPGQAPRLLIYDASYRATGIPARFSGSGSGTDFTLTISSLEPEDYAVYYCQQRGNWPITFGQGTRLEIK
notes: sFab; variable domains only; also called M307-F04
Turning to B5, the Ki in experiment [1] turned out to be 0.1 nM; in experiment [5] it was 0.1 nM; in experiment [6], 0.1 nM; in experiment [2], 0.8 nM; in experiment [3], 0.4 nM; in experiment [4], 0.4 nM.
